We go through one substance from US20070275898.

The target in this data set is β subunit of DNA polymerase III of Escherichia coli (UniProt P0A988).
Chain of β subunit of DNA polymerase III of Escherichia coli (P0A988 whole entry): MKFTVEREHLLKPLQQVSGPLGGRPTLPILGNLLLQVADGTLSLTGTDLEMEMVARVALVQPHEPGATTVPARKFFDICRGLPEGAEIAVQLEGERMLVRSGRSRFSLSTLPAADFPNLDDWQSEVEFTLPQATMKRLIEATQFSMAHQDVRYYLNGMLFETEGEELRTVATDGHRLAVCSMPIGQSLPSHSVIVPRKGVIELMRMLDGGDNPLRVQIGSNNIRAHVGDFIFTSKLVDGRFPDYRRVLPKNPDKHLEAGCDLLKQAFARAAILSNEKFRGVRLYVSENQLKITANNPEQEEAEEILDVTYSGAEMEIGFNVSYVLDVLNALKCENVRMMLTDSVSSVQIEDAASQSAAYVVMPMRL

As to “Pol IVD5 mutant of Pol IV lacking the 5 C-terminal amino-acids”, the “growth rate (OD 600 nm) of E. coli on IPTG-induced expression” value is “a clear growth inhibition was observed for the culture expressing the wild type Pol IV protein compared to the one expressing the mutant protein”.
